Experimental data taken from PMC10397247.
One block for each binder: values may come before it.

Legend:
Test in all cases: two-hybrid library CCNG1;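 note: natural log of median RNA to DNA barcode read ratio; higher means stronger binding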
[1] = target: T1, 4H968-bA
T1 chain: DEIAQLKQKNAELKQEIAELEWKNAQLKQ

[2] = target: T2, 4H855-bA
T2 chain: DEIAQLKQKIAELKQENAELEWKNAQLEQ

[3] = target: T3, 4H953-bA
T3 chain: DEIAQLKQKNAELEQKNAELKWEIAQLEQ

[4] = target: T4, O11-bA
T4 chain: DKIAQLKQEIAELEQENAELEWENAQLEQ

[5] = target: T5, 4H918-bA
T5 chain: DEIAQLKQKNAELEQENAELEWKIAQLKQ

[6] = target: T6, 4H4038-bH
T6 chain: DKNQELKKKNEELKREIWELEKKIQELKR

[7] = target: T7, 4H3601-bH
T7 chain: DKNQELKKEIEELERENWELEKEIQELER

[8] = target: T8, 4H3592-bH
T8 chain: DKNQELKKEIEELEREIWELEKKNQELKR

[9] = target: T9, 4H3907-bH
T9 chain: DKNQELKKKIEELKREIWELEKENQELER

[10] = target: T10, 4H2944-bN
T10 chain: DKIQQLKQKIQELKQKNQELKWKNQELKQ

[11] = target: T11, 4H491-bN
T11 chain: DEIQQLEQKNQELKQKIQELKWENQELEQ

[12] = target: T12, 4H342-bN
T12 chain: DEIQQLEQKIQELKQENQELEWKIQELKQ

[13] = target: T13, 4H48-bN
T13 chain: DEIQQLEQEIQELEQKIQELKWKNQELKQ

interaction score [1]: -0.685
interaction score [2]: -0.844
interaction score [3]: -1.71
interaction score [4]: -3.09
interaction score [5]: -1.16
Binder: DEIAQLKQKIAELKQENAELEWKNAQLEQ [4H855-bA]

interaction score [6]: -0.403
interaction score [7]: -0.0581
interaction score [8]: 0.863
interaction score [9]: 1.02
Binder: DKNQELKKEIEELEREIWELEKKNQELKR [4H3592-bH]

interaction score [10]: -0.735
interaction score [11]: -0.954
interaction score [12]: -0.943
interaction score [13]: -0.0947
Binder: DKIQQLKQKIQELKQKNQELKWKNQELKQ [4H2944-bN]
